Patent US20140248254A1, “THE USE OF ACHE AS NUCLEASE” (priority 2011, published 2014)

Legend:
[1] = tested on: plasmid DNA (pEGFP-C1 plasmid); assay: In vitro DNase activity: cleavage of plasmid DNA by purified protein; type: biochemical; conditions: for cleavage of plasmid DNA from supercoil (SC) into Nick and Linear structures: cell free system, 37° C.
Method: D. The results of 1% agarose electrophoresis before which pEGFP-C1 plasmid DNA and Homo or Mus AChE protein (0, 0.5, 1 and 2 μg) were coincubated for 6 h. EcoR was used to indicate linear DNA. MK indicated molecular weight marker.
E. the plasmid splitting with increasing time of the incubation of pEGFP-C1 plasmid DNA (150 ng) and Homo or Mus AChE protein (1 μg)). The above experiment was repeated for 3 times.
G. Commercial AChE isolated from Ee1 was incubated in different doses with plasmid DNA, and two bovine serum albumins (BSA1, BSA2) purchased from different companies were used as control at the same time; after being incubated for 5 h, they were subjected to DNA gel electrophoresis.
H. Commercial AChE isolated from Ee1 was incubated with plasmid DNA for different durations, and two bovine serum albumins (BSA1, BSA2) purchased from different companies were used as control at the same time. They were then subjected to DNA gel electrophoresis.
B. The influence of pH value on AChE nuclease activity. Plasmid DNA was incubated with Homo AChE protein under different pH conditions for 3 h.
Purified plasmid DNA was used as substrate for detection. In the experiment of cleaving of plasmid DNA, 0.15 μg of plasmid DNA with a transfection-grade purity (pEGFP-C1 plasmid, Clotech) was added to 10 μl buffer system containing (5.0 mM Tris-HCl, PH 7.5; 2.5 mM CaCl2; 5.0 mM MgCl2). 1 μg (or an amount indicated in Examples) of purified AChE proteins of human or mouse origin (AChE 1-547AA corresponding to human; AChE1-548AA corresponding to mouse) was further added, and incubated in 37° C. Sampling at 6 h (or timepoints indicated in Examples).

[2] = tested on: DNA; assay: Dissociation constant between protein and DNA (Bio Core T100 assay); type: binding
Excerpt: AChE protein and DNase I presented similar binding curves.
Meanwhile, the inventors detected environment characteristics in which AChE cleaving DNA. DNase activity of AChE was Mg2+-dependent, while Ca2+ could only play a weak supporting role (FIG. 5a). In a relatively wide pH range of pH 7.0-10.0 (similar to in vivo pH environment during apoptosis), AChE can fully play its function of cleaving DNA (FIG. 5b).

[3] = tested on: HeLa cell; assay: Screening Method 3: DNA breakage (Tunnel) in fixed, permeabilized HeLa cells treated with protein; type: cell-based, human; conditions: AChE protein 1 μg/μl, 1-2 hr 37° C., compared with BSA group
Method: HeLa cells were plated in 96-well plate with a 60% density, and after complete adherence, the cells were fixed with 4% PFA for 10 min, and permeabilized with 0.1% sodium citrate +0.1% Triton X-100 for 10 min, for twice. After PBS washing, cells were divided into five groups, as follows:
AChE protein group: HeLa cell, treated with AChE protein (1 μg/μl) after fixation and permeabilization treatment;
Cells of each group were incubated for 1-2 hr in 37° C.; Washed twice with PBS, and fixed with 4% PFA for 10 min. Tunnel reagent was added, incubated for 1 hr in 37° C.; and then washed three times with PBS, stained with Hoechest. Observation was performed by fluorescence microscope.

B1: Mus AChE (protein)
chain: EGREDPQLLVRVRGGQLRGIRLKAPGGPVSAFLGIPFAEPPVGSRRFMPPEPKRPWSGVLDATTFQNVCYQYVDTLYPGFEGTEMWNPNRELSEDCLYLNVWTPYPRPASPTPVLIWIYGGGFYSGAASLDVYDGRFLAQVEGAVLVSMNYRVGTFGFLALPGSREAPGNVGLLDQRLALQWVQENIAAFGGDPMSVTLFGESAGAASVGMHILSLPSRSLFHRAVLQSGTPNGPWATVSAGEARRRATLLARLVGCPPGGAGGNDTELIACLRTRPAQDLVDHEWHVLPQESIFRFSFVPVVDGDFLSDTPEALINTGDFQDLQVLVGVVKDEGSYFLVYGVPGFSKDNESLISRAQFLAGVRIGVPQASDLAAEAVVLHYTDWLHPEDPTHLRDAMSAVVGDHNVVCPVAQLAGRLAAQGARVYAYIFEHRASTLTWPLWMGVPHGYEIEFIFGLPLDPSLNYTTEERIFAQRLMKYWTNFARTGDPNDPRDSKSPQWPPYTTAAQQYVSLNLKP
B1 was tested, and the “cleavage of plasmid DNA from supercoil (SC) into Nick and Linear structures” value [1] was “effectively cleave plasmid DNA”.

B2: Homo AChE (protein)
chain: EGREDAELLVTVRGGRLRGIRLKTPGGPVSAFLGIPFAEPPMGPRRFLPPEPKQPWSGVVDATTFQSVCYQYVDTLYPGFEGTEMWNPNRELSEDCLYLNVWTPYPRPTSPTPVLVWIYGGGFYSGASSLDVYDGRFLVQAERTVLVSMNYRVGAFGFLALPGSREAPGNVGLLDQRLALQWVQENVAAFGGDPTSVTLFGESAGAASVGMHLLSPPSRGLFHRAVLQSGAPNGPWATVGMGEARRRATQLAHLVGCPPGGTGGNDTELVACLRTRPAQVLVNHEWHVLPQESVFRFSFVPVVDGDFLSDTPEALINAGDFHGLQVLVGVVKDEGSYFLVYGAPGFSKDNESLISRAEFLAGVRVGVPQVSDLAAEAVVLHYTDWLHPEDPARLREALSDVVGDHNVVCPVAQLAGRLAAQGARVYAYVFEHRASTLSWPLWMGVPHGYEIEFIFGIPLDPSRNYTAEEKIFAQRLMRYWANFARTGDPNEPRDPKAPQWPPYTAGAQQYVSLDLR
For B2, the “cleavage of plasmid DNA from supercoil (SC) into Nick and Linear structures” value [1] was “effectively cleave plasmid DNA”.

B3: AChE (protein, listed as Homo Sapiens)
chain: MRPPQCLLHTPSLASPLLLLLLWLLGGGVGAEGREDAELLVTVRGGRLRGIRLKTPGGPVSAFLGIPFAEPPMGPRRFLPPEPKQPWSGVVDATTFQSVCYQYVDTLYPGFEGTEMWNPNRELSEDCLYLNVWTPYPRPTSPTPVLVWIYGGGFYSGASSLDVYDGRFLVQAERTVLVSMNYRVGAFGFLALPGSREAPGNVGLLDQRLALQWVQENVAAFGGDPTSVTLFGESAGAASVGMHLLSPPSRGLFHRAVLQSGAPNGPWATVGMGEARRRATQLAHLVGCPPGGTGGNDTELVACLRTRPAQVLVNHEWHVLPQESVFRFSFVPVVDGDFLSDTPEALINAGDFHGLQVLVGVVKDEGSYFLVYGAPGFSKDNESLISRAEFLAGVRVGVPQVSDLAAEAVVLHYTDWLHPEDPARLREALSDVVGDHNVVCPVAQLAGRLAAQGARVYAYVFEHRASTLSWPLWMGVPHGYEIEFIFGIPLDPSRNYTAEEKIFAQRLMRYWANFARTGDPNEPRDPKAPQWPPYTAGAQQYVSLDLRPLEVRRGLRAQACAFWNRFLPKLLSATDTLDEAERQWKAEFHRWSSYMVHWKNQFDHYSKQDRCSDL
B3 was tested, and the “affinity for DNA relative to that of DNase I” value ([2]; from Kd values) was “about 74%”, the Kd ([2]; software analysis of binding curves) was 1530 nM and the “DNA cleaving activity at pH 5-6” value ([1]; Homo AChE protein, pH 5-6, 3 h) was “reduced slightly”. For the same molecule, the “DNA cleaving activity at pH 7-10” value ([1]; Homo AChE protein, pH 7-10, 3 h) was “can effectively function to cleave DNA” and the “intracellular DNA breakage” value [3] was “obvious breakage”.
